Test results: patent publication US7919461B2, “Erythropoietin receptor peptide formulations and uses” (Affymax, Inc., priority 2005, dated 2011)
Entries after “also recorded” stand apart in the source; their conditions may differ. Bridge positions count the residues as written; N and C are the ends. Square brackets hold non-standard residues; d marks the D form. Ends that are not written are not given here. 1Nal = N[C@@H](Cc1cccc2ccccc12)C(=O)O; Sar = CNCC(=O)O

Key:
[1] = Phase 1 single IV dose study in normal healthy volunteers, pharmacokinetics; format: in vivo, human; settings: dose normalized, ANOVA
Text: (§1) Peptide I has been tested in […] in one Phase 1 study. This first-in-human study with Peptide I was a randomized, double-blind, placebo-controlled, single-dose, IV, escalating dose, safety and tolerability trial. The primary objectives of the study were to evaluate the safety and pharmacokinetics of Peptide I, and to establish a pharmacologically active dose (PAD). Cohorts of seven male volunteers were scheduled to receive single doses of Peptide I or placebo in a 5:2 ratio. Cohorts were to be added at increasing dose levels until a PAD, as determined by an increase in hemoglobin from baseline values, was observed, at which point the dose level identified as the PAD would be repeated in another cohort of volunteers.
(§2) The study was initiated in four cohorts were enrolled in a consecutive manner at Peptide I doses of 0.025, 0.05, 0.1 mg/kg, and […], respectively (single dose per cohort). […] As such, the study was terminated.
In the 0.025 mg/kg dose group, Peptide I concentration peaked between 5 and 15 minutes, while tmax approached 1 hour for the 0.1 mg/kg dose.

[2] = Pharmacology studies in animals, stimulation of erythropoiesis; format: in vivo, mice; rats, dogs, rabbits and monkeys
[3] = Phase 1 single IV dose study in normal healthy volunteers, pharmacodynamics; format: in vivo, human
Text: as §1, §2

[4] = Phase II multi-dose once-monthly SC study in pre-dialysis chronic kidney disease patients; format: in vivo, human
Protocol: A multi-center, open-label, sequential dose-finding phase II clinical trial involving patients with chronic kidney disease was performed in order to evaluate the safety and pharmacodynamics of multiple doses of once-monthly (Q4W) subcutaneous (SC) delivery of Peptide I (SEQ ID NO:2). A total of 60 erythropoiesis-stimulating-agent-naïve, pre-dialysis, chronic kidney disease (CKD) patients [hemoglobin (Hgb) levels 9.0-10.9 g/dL, ferritin >100 ug/L and transferrin saturation (TSAT)>20%] were enrolled into three dose cohorts. Patients received up to six once-monthly SC drug doses. The starting doses were 0.025 mg/kg (n=15), 0.050 mg/kg (n=30) and 0.075 mg/kg (n=15). Dose titration was allowed after the first dose, based on patient Hgb levels.
Dose titrations were allowed after the patient's initial dose. Dose adjustments were ±25% of the previous dose, depending on the patient's measured hemoglobin (Hgb) level.

[5] = Pharmacokinetic studies in rats; format: in vivo; settings: species not stated
[6] = Phase 1 single IV dose study in normal healthy volunteers, safety; format: in vivo, human
Text: as §1, §2

With “PEGylated homodimer of peptide monomers (AcG)GLYACHMGPIT(1-nal)VCQPLR(MeG)K (SEQ ID NO: 2); fully synthetic EPO receptor agonist (Ac-GGLYACHMGPIT[1Nal]VCQPLR[Sar]K; disulfide 6-15 (inferred); not fully specified (residue 1); printed as (AcG)GLYACHMGPIT(1-nal)VCQPLR(MeG)K; also: homodimer via branched linker on K21 ε-amino group, PEG attached to linker) [Peptide I]” the “AUC(0-infinity) relationship with dose” value [1] was “evidence of non-linearity at the highest dose of 0.1 mg/kg; also recorded: nonlinear at the 0.1 mg/kg dose”, the “rise in reticulocytes and RBCs as measured by hemoglobin levels” value ([2]; rats and monkeys) was “dose proportional” and the stimulation of erythropoiesis ([2]; single or repeat dose, mice, rats (normocythemic and nephrectomized), dogs, rabbits, monkeys) was “dose-dependent activity”. For the same substance, the “increase in hemoglobin associated with the PAD” value ([3]; 0.1 mg/kg) was ≥ 1.0 g/dL, the “average maximum increase in hemoglobin from baseline” value ([3]; 0.1 mg/kg, 10 recipients) was 1.36 ± 0.39 g/dL and the “average hemoglobin levels at Day 42” value ([3]; 0.1 mg/kg, Day 42) was “returned to baseline”. The “difference in change from baseline hemoglobin versus placebo” value ([3]; 0.1 mg/kg, Day 42 as throughout the study) was ≥ 0.5 g/dL, the “time of maximum reticulocyte counts postdose” value ([3]; all dose cohorts) was “approximately 7 days” and the “changes in other pharmacodynamic parameters (red cell count, hematocrit, ferritin, reticulocyte hemoglobin content, soluble transferrin receptor, EPO)” value ([3]; human, in vivo) was “consistent with stimulation of erythropoiesis”. For the same substance, the “hemoglobin response and change from baseline (mean and maximum)” value ([3]; over 28 days post-dose) was “dose-dependent increases”, the “Reticulocyte count (absolute number and percent)” value ([3]; single IV 0.025, 0.05, 0.1 mg/kg) was “dose-dependent increase” and the “pharmacologically active dose (PAD)” value ([3]; single IV dose, NHV) was 0.1 mg/kg. The “Serum EPO levels” value ([3]; with increasing dose) was “transiently decreased”, the “patients reporting adverse events” value ([4]; 60 patients) was 18% and the injection site reaction ([4]; SC) was “no injection site reaction was reported”. The “hemoglobin (Hgb) increase” value ([4]; dosed monthly) was “sustained increase in hemoglobin (Hgb) up to week 22”, the “number of adverse events” value ([4]; human, in vivo) was 36 and the “relation of adverse events to study drug” value ([4]; human, in vivo) was “not related to study drug”. The “tolerability of multiple monthly subcutaneous injections” value ([4]; human, in vivo, sc) was “well-tolerated”, the correction of anaemia ([4]; monthly dosing) was “correction of anaemia in patients by week eight” and the Biodistribution [5] was “primarily to the plasma fraction”. The “abdominal pain, frequency” value ([6]; Peptide I recipients) was 10.0%, the “headache, frequency” value ([6]; Peptide I recipients) was 20.0% and the “nasopharyngitis, frequency” value ([6]; Peptide I recipients) was 10.0%. The “nausea, frequency” value ([6]; Peptide I recipients) was 10.0%, the “subjects who experienced adverse events” value ([6]; Peptide I recipients) was 11 of 20 and the “Serious Adverse Events” value ([6]; human, in vivo) was “no Serious Adverse Events”. For the same substance, the “antibodies specific to Peptide I” value ([6]; human, in vivo) was “None of the subjects in this trial developed antibodies”, the “vital signs, electrocardiograms (ECGs) or laboratory values” ([6]; human, in vivo) was “no clinically significant changes” and the safety and tolerability ([6]; single IV doses of 0.025, 0.05, or 0.1 mg/kg) was “safe and well tolerated”.
